Data: IntAct's records for PubMed 27754869

B1: Natural cytotoxicity triggering receptor 3 (Homo sapiens), O14931 (parent)
chain: MAWMLLLILIMVHPGSCALWVSQPPEIRTLEGSSAFLPCSFNASQGRLAIGSVTWFRDEVVPGKEVRNGTPEFRGRLAPLASSRFLHDHQAELHIRDVRGHDASIYVCRVEVLGLGVGTGNGTRLVVEKEHPQLGAGTVLLLRAGFYAVSFLSVAVGSTVYYQGKCLTWKGPRRQLPAVVPAPLPPPCGSSAHLLPPVPGG
partner: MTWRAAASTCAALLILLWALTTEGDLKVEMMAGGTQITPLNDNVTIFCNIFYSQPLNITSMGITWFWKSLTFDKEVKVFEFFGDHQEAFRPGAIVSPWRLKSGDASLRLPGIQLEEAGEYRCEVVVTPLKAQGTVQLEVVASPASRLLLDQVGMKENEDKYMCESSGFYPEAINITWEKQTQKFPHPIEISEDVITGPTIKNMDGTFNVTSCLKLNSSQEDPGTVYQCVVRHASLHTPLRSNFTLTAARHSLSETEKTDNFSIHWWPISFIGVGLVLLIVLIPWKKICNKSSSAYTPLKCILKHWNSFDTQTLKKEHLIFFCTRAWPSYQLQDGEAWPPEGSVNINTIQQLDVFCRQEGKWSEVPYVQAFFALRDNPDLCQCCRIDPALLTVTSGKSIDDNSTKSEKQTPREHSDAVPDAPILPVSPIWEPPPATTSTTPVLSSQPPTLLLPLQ

Variants of: B1
Settings: with nr3l1_human NCR3LG1, Q68D85

Variant | effect of a mutation on the interaction
MAWMLLLILIMVHPGSCALWVSQPPEIRTLEGSSAFLPCSFNASQGRLAIGSVTWFRDEVVPGKEVRNGTPEFRGRLAPLASSRFLHDHQAELHIRDVRGHDASIYVCRVEVLGLGVGTGNGTRLVVEKEHPQAGAGTVLLLRAGFYAVSFLSVAVGSTVYYQGKCLTWKGPRRQLPAVVPAPLPPPCGSSAHLLPPVPGG [L134A] | decreasing interaction strength
MAWMLLLILIMVHPGSCALWVSQPPEIRTLEGSSAFLPCSFNASQGRLAIGSVTWFRDEVVPGKEVRNGTPEFRGRLAPLASSRFLHDHQAELHIRDVRGHDASIYVCRVEVLGLGVGTGNGTRLVVEKEHPQLGAGTVLLLAAGFYAVSFLSVAVGSTVYYQGKCLTWKGPRRQLPAVVPAPLPPPCGSSAHLLPPVPGG [R143A] | decreasing interaction strength
MAWMLLLILIMVHPGSCALWVSQPPEIRTLEGSSAFLPCSFNASQGRLAIGSVTWFRDEVVPGKEVRNGTPEFRGRLAPLASSRFLHDHQAELHIRDVRGHDASIYVCRVEVLGLGVGTGNGTRLVVEKAHPQLGAGTVLLLRAGFYAVSFLSVAVGSTVYYQGKCLTWKGPRRQLPAVVPAPLPPPCGSSAHLLPPVPGG [E130A] | decreasing interaction strength
MAWMLLLILIMVHPGSCALWVSQPPEIRTLEGSSAFLPCSFNASQGRLAIGSVTWFRDEVVPGKEVRNGTPEFRGRLAPLASSRFLHDHQAELHIRDVRGHDASIYVCRVEVLGLGVGTGNGTRLVVEKEHPQLGAGTVALLRAGFYAVSFLSVAVGSTVYYQGKCLTWKGPRRQLPAVVPAPLPPPCGSSAHLLPPVPGG [L140A] | increasing interaction strength
MAWMLLLILIMVHPGSCALWVSQPPEIRTLEGSSAFLPCSFNASQGRLAIGSVTWFRDEVVPGKEVRNGTPEFRGRLAPLASSRFLHDHQAELHIRDVRGHDASIYVCRVEVLGLGVGTGNGTRLVVEAEHPQLGAGTVLLLRAGFYAVSFLSVAVGSTVYYQGKCLTWKGPRRQLPAVVPAPLPPPCGSSAHLLPPVPGG [K129A] | decreasing interaction strength
MAWMLLLILIMVHPGSCALWVSQPPEIRTLEGSSAFLPCSFNASQGRLAIGSVTWFRDEVVPGKEVRNGTPEFRGRLAPLASSRFLHDHQAELHIRDVRGHDASIYVCRVEVLGLGVGTGNGTRLVVEKEHPQLGAGTALLLRAGFYAVSFLSVAVGSTVYYQGKCLTWKGPRRQLPAVVPAPLPPPCGSSAHLLPPVPGG [V139A] | increasing interaction strength
MAWMLLLILIMVHPGSCALWVSQPPEIRTLEGSSAFLPCSFNASQGRLAIGSVTWFRDEVVPGKEVRNGTPEFRGRLAPLASSRFLHDHQAELHIRDVRGHDASIYVCRVEVLGLGVGTGNGTRLVVEKEHPQLAAGTVLLLRAGFYAVSFLSVAVGSTVYYQGKCLTWKGPRRQLPAVVPAPLPPPCGSSAHLLPPVPGG [G135A] | decreasing interaction strength
MAWMLLLILIMVHPGSCALWVSQPPEIRTLEGSSAFLPCSFNASQGRLAIGSVTWFRDEVVPGKEVRNGTPEFRGRLAPLASSRFLHDHQAELHIRDVRGHDASIYVCRVEVLGLGVGTGNGTRLVVEKEHPQLGAATVLLLRAGFYAVSFLSVAVGSTVYYQGKCLTWKGPRRQLPAVVPAPLPPPCGSSAHLLPPVPGG [G137A] | with no effect
MAWMLLLILIMVHPGSCALWVSQPPEIRTLEGSSAFLPCSFNASQGRLAIGSVTWFRDEVVPGKEVRNGTPEFRGRLAPLASSRFLHDHQAELHIRDVRGHDASIYVCRVEVLGLGVGTGNGTRLVVEKEHPQLGAGTVLALRAGFYAVSFLSVAVGSTVYYQGKCLTWKGPRRQLPAVVPAPLPPPCGSSAHLLPPVPGG [L141A] | with no effect
MAWMLLLILIMVHPGSCALWVSQPPEIRTLEGSSAFLPCSFNASQGRLAIGSVTWFRDEVVPGKEVRNGTPEFRGRLAPLASSRFLHDHQAELHIRDVRGHDASIYVCRVEVLGLGVGTGNGTRLVVEKEHPQLGAGTVLLARAGFYAVSFLSVAVGSTVYYQGKCLTWKGPRRQLPAVVPAPLPPPCGSSAHLLPPVPGG [L142A] | increasing interaction strength
MAWMLLLILIMVHPGSCALWVSQPPEIRTLEGSSAFLPCSFNASQGRLAIGSVTWFRDEVVPGKEVRNGTPEFRGRLAPLASSRFLHDHQAELHIRDVRGHDASIYVCRVEVLGLGVGTGNGTRLVVEKEHPALGAGTVLLLRAGFYAVSFLSVAVGSTVYYQGKCLTWKGPRRQLPAVVPAPLPPPCGSSAHLLPPVPGG [Q133A] | decreasing interaction strength
MAWMLLLILIMVHPGSCALWVSQPPEIRTLEGSSAFLPCSFNASQGRLAIGSVTWFRDEVVPGKEVRNGTPEFRGRLAPLASSRFLHDHQAELHIRDVRGHDASIYVCRVEVLGLGVGTGNGTRLVVEKEAPQLGAGTVLLLRAGFYAVSFLSVAVGSTVYYQGKCLTWKGPRRQLPAVVPAPLPPPCGSSAHLLPPVPGG [H131A] | decreasing interaction strength
MAWMLLLILIMVHPGSCALWVSQPPEIRTLEGSSAFLPCSFNASQGRLAIGSVTWFRDEVVPGKEVRNGTPEFRGRLAPLASSRFLHDHQAELHIRDVRGHDASIYVCRVEVLGLGVGTGNGTRLVVEKEHPQLGAGAVLLLRAGFYAVSFLSVAVGSTVYYQGKCLTWKGPRRQLPAVVPAPLPPPCGSSAHLLPPVPGG [T138A] | decreasing interaction strength
MAWMLLLILIMVHPGSCALWVSQPPEIRTLEGSSAFLPCSFNASQGRLAIGSVTWFRDEVVPGKEVRNGTPEFRGRLAPLASSRFLHDHQAELHIRDVRGHDASIYVCRVEVLGLGVGTGNGTRLVVEKEHAQLGAGTVLLLRAGFYAVSFLSVAVGSTVYYQGKCLTWKGPRRQLPAVVPAPLPPPCGSSAHLLPPVPGG [P132A] | with no effect
